Columns and labels:
[1] = tested on: primary leukemia cells; assay: FACS analysis of binding to primary leukemia cells of patients; set-up: species or system human
Description: Analysis of binding of scFv Y1 antibodies and anti-CD162 antibodies to diseased cells also illustrates that scFv Y1 has binding characteristics different from those of anti-CD-162 antibodies. […] Table F). Y1 binds to the leukemic cells in 10 of 12 samples. In contrast, anti-CD162 bound only 5 out of 12 samples. […] Thus, it may be concluded that, in leukemic cells, scFv Y1 binds to a ligand other than that recognized by anti-CD162.
Samples provided from hospitals. Patients sample 30 μl/tube. Add 5 μl/tube of CD33-APC (for AML) or CD19-APC (for B-CLL) or CD38-APC (for Multiple Myeloma). Add 5 μl/tube of CD45-PerCp and 5 μl of scFv-Y1 or control scFv-N31 or CD162-PE (KPL1). Incubate tubes 30 minutes at 4° C. with low shaking. Wash by adding 2 ml PBS and spin 5 minutes at 1200 rpm. Discard supernatant.
For a one step assay continue with the lysis step:
Add 500 μl BD Lysine solution diluted 1:10 with ddH2O (300 μl to patient sample). Vortex at high speed and incubate 12 minutes at 4° C. Wash as above. Discard supernatant. And add 500 μl PBS. The samples are read in the FACS using blood sample acquisition setup according to international standards.
For two or more assays: working buffer is PBS+1% BSA+0.05% sodium azide. Incubations and wash as above.
Lysis of the red blood cells is the final step in the assay, followed by resuspension with 500 μl PBS.

[2] = tested on: Jurkat cells; assay: FACS binding to Jurkat cells; set-up: species or system human; settings: 1 μg scFv-Y1 versus 5 ng IgG-Y1; two-step staining
Text: The present invention is directed to Y1 and Y17 multimers prepared by any known method in the art. A preferred method of forming multimers, and especially dimers, employs the use of cysteine residues to form disulfide bonds between two monomers. In this embodiment, dimers are formed by adding a cysteine on the carboxyl terminus of the scFvs (referred to as Y1-cys scFv or Y1 dimer) in order to facilitate dimer formation. After the DNA construct was made (See Example 2D and 6D) and used for transfection, Y1 dimers were expressed in a production vector and refolded in vitro. The protein was analyzed by SDS-PAGE, HPLC, and FACS. […] Two peaks were detected by SDS-PAGE (non-reduced) and by gel filtration. The peaks were collected separately and analyzed by FACS. […] Conditions for dimer refolding were determined, and material comprising >90% dimers (mg quantities) was produced after subsequent dialysis, chromatographic, and gel filtration steps. […]
FACS analysis was performed on Jurkat cells using a “three step staining procedure.” First, crude extracts or purified unlabeled scFv are stained, then mouse anti-myc antibodies, and finally, FITC— or PE-conjugated anti-mouse antibodies. […] After the final staining step, cells were fixed by re-suspending in PBS, 1% BSA, 2% formaldehyde, and then read by FACS (Becton-Dickinson).

B1: Y1 scFv: fully human scFv clone binding platelets and myelogenous leukemia cells; SEQ ID NO: 25, heavy chain CDR3 SEQ ID NO: 8 (protein, listed as Homo sapiens)
scFv: MKYLLPTAAAGLLLLAAQPAMAEVQLVESGGGVVRPGGSLRLSCAASGFTFDDYGMSWVRQAPGKGLEWVSGINWNGGSTGYADSVKGRFTISRDNAKNSLYLQMNSLRAEDTAVYYCARMRAPVIWGQGTLVTVSRGGGGSGGGGSGGGGSSELTQDPAVSVALGQTVRITCQGDSLRSYYASWYQQKPGQAPVLVIYGKNNRPSGIPDRFSGSSSGNTASLTITGAQAEDEADYYCNSRDSSGNHVVFGGGTKLTVLGAAAEQKLISEEDLNGAA
- leukemia patient samples whose leukemic cells are bound ([1]; 12 patient samples, FACS): 10 of 12
- % Positive ([1]; AML patients): 80%
- Number Positive ([1]; AML patients): 60/75
- % Negative ([1]; B-ALL, Bone Marrow): 67%
- % Positive ([1]; B-ALL, Bone Marrow): 33%
- Number Positive ([1]; B-ALL, Bone Marrow): 3/9
- % Negative ([1]; B-CLL, Peripheral Blood): 26%
- % Positive ([1]; B-CLL, Peripheral Blood): 74%
- Number Positive ([1]; B-CLL, Peripheral Blood): 17/23
- % Positive ([1]; B-Leukemia patients): 67%
- Number Positive ([1]; B-Leukemia patients): 29/43
- % Negative ([1]; B-Lymphoma, Peripheral Blood): 38%
- % Positive ([1]; B-Lymphoma, Peripheral Blood): 62%
- Number Positive ([1]; B-Lymphoma, Peripheral Blood): 5/8
- % Positive ([1]; Multiple Myeloma patients): 100%
- Number Positive ([1]; Multiple Myeloma patients): 16/16
- % Negative ([1]; Pre-B-ALL, Bone Marrow): 0%
- % Positive ([1]; Pre-B-ALL, Bone Marrow): 100%
- Number Positive ([1]; Pre-B-ALL, Bone Marrow): 3/3
- fold more molecules needed for a level of detection similar to IgG-Y1 [2]: approximately 10^3 fold

Source: US20040002450A1, “Y17 - isolated molecules comprising epitopes containing sulfated moieties, antibodies to such epitopes, and uses thereof” (priority 2000, published 2004)
